This is an account of results in US10925928B2, “Method for treating chemotherapy-induced male infertility” (THE BOARD OF REGENTS OF THE UNIVERSITY OF TEXAS SYSTEM, priority 2013, dated 2021).

Entries after “also recorded” stand apart in the source; their conditions may differ.

For data set [1], the system named is C57BL/6 mice. Kind of data set: Mouse testis weight and histological evaluation of spermatogenesis two months after busulfan +/- G-CSF. It counts as in vivo. Here is the method: (§1) FIGS. 3A-3D. This study evaluated the chronic and acute effects of G-CSF treatment on susceptibility to cytotoxic damage by busulfan alkylating chemotherapy. (A) Five-week old C57BL/6 mice were treated with a sterilizing dose of busulfan (44 mg/kg) on day 0. Some busulfan-treated mice also received injections of recombinant human G-CSF (50 μg/kg/day) on days −2 through 4 (seven days total, see group 3 in B). (B) 3 animals were used for each of three treatment groups as shown. Animals in group 1 served as an “untreated” control group (received 0.1% BSA/DPBS and DMSO vehicles only), while those in group 2, which received only busulfan (plus 0.1% BSA/DPBS vehicle), served as positive controls for busulfan cytotoxicity. Animals in the experimental group 3 received both busulfan and daily G-CSF injections. (C) 8-10 weeks after treatment, some of the mice were euthanized and testes removed for histological evaluation of spermatogenesis. (D) In an “acute” study, testes were removed on day 5 of the experiment (one day after the last G-CSF treatment, dark triangle). These testis tissues were used for immunohistochemical analysis of undifferentiated spermatogonia (PLZF) and apoptosis (activated Caspase 3 and TUNEL, see FIGS. 10-12).
FIG. 4. Mouse testis weights 2 months after busulfan treatment +/−G-CSF. Two months after treatment, testes were removed from the treated mice and weighed. […] But, testis weights from animals treated with busulfan+G-CSF were not different from those treated with busulfan+vehicle. Statistical significance was determined by a student's T-test.
FIGS. 5A-5F. […] Tiled brightfield images of H&E-stained sections of mouse testes from (A) group 1 (DMSO+vehicle), (B) group 2 (busulfan+vehicle), and (C) group 3 (busulfan+G-CSF). Dashed box inset indicates the area shown in D-F. Scale bars=500 μm. Enlarged images of the dashed boxes in A-C are shown in (D-F), respectively. Scale bars=50 μm. Filled arrowheads=seminiferous tubules with spermatogenesis. Open arrowheads=no spermatogenesis.
FIGS. 6A-6B. Quantitatively more mouse spermatogenesis was observed after busulfan treatment when mice received G-CSF treatment. Seminiferous tubule cross-sections from mice treated as shown in FIG. 5 were systematically counted and categorized as containing complete spermatogenesis (complete), up to round spermatid stage (round spermatids), up to primary spermatocytes (1° spermatocytes), or containing no spermatogenesis (empty or Sertoli cell-only). (A) The percentage of all seminiferous tubule cross-sections counted from all animals in each group which fall in the four categories is shown. […] (B) The same data presented in A are combined by group to show the percentage of seminiferous tubules containing any spermatogenesis or no spermatogenesis (empty bar segment). […] Statistically significant results (p<0.05) were determined by Tukey-Kramer ANOVA.
The results of meta-analysis of the rhesus macaque busulfan studies prompted additional studies in mice to (1) replicate the results observed in rhesus macaques and (2) determine whether G-CSF could act directly upon testicular germ cells to prevent male infertility after busulfan treatment. In the first experiment, 5 week-old C57BL/6 mice were treated with G-CSF for one week (50 μg/kg/day) and administered busulfan (44 mg/kg) on day 3 (see FIG. 3), mimicking the approach used to administer G-CSF in rhesus monkeys. Two months after completing G-CSF treatment, the mice euthanized and their testes removed. […] The testes were then analyzed histologically (FIG. 5) to determine if G-CSF treatment affected the degree of spermatogenesis after busulfan treatment. Unlike control testes, in which most tubules contained complete spermatogenesis (FIGS. 5A and D), many tubules were devoid of germ cells (empty or Sertoli cell-only) in animals treated with busulfan (FIGS. 5B-C and E-F).

In data set [2] the test system is rhesus macaques. As to conditions: 8-12 mg/kg busulfan without G-CSF; two animals; total sperm per ejaculate; cited from earlier work.
Data set [3] deals with C57BL/6 mice. Put plainly: Acute mouse study: immunohistochemistry of undifferentiated spermatogonia (PLZF) and apoptosis 5 days after busulfan +/- G-CSF. Type of data set: in vivo. As to conditions: five days after busulfan treatment. Here is the method:
as §1
FIG. 10. […] The numbers of PLZF+spermatogonia in stained testis sections from mice treated as in FIG. 3 and analyzed as in FIG. 3D are shown. […] Statistical significance was determined by student's T-test.
FIG. 11. […] Despite increased numbers of PLZF+spermatogonia in busulfan-treated animals that also received G-CSF (FIG. 10), the proportions of PLZF+spermatogonia that were positive for activated Caspase 3 (top) were not different between animals treated with G-CSF compared to busulfan alone (p=0.38).
FIG. 12. […] Despite increased numbers of PLZF+spermatogonia in busulfan-treated animals that also received G-CSF (FIG. 10), the proportions of PLZF+spermatogonia that were positive for TUNEL were not different between animals treated with G-CSF compared to busulfan alone (p=0.28).
Shown in FIG. 10 are the numbers of PLZF+spermatogonia in stained testis sections from mice treated as in FIG. 3. […] Statistical significance was determined by student's T-test.
Despite increased numbers of PLZF+spermatogonia in busulfan-treated animals that also received G-CSF, the proportions of PLZF+spermatogonia that were positive for activated Caspase 3 (FIG. 11) or TUNEL (FIG. 12) were not different between animals treated with G-CSF compared to busulfan alone (p=0.38 and p=0.28, respectively).

The test system of data set [4] is rhesus macaques. Kind of data set: Meta-analysis of ejaculated sperm counts in rhesus macaques after busulfan chemotherapy with or without G-CSF. Type of data set: in vivo, rhesus macaque. The source says: FIG. 1. Timeline for rhesus macaque granulocyte colony stimulating factor (G-CSF) and chemotherapy administration. FIG. 1 illustrates the timing of experimental administration of G-CSF and busulfan alkyating chemotherapy in the context of a study testing spermatogonial stem cell transplantation. Male rhesus macaques were used as recipients for spermatogonial stem cell transplantation after busulfan treatment. In order to restore the hematopoietic system after busulfan chemotherapy, autologous transplants of hematopoietic stem cells harvested from the peripheral blood (PBSCs) following G-CSF mobilization were used. Animals received daily subcutaneous injections with the cytokine G-CSF (and in some cases, also SCF) for six days to mobilize hematopoietic stem cells from the bone marrow into the general circulation. […] Animals were monitored closely for hematopoietic deficits with weekly (or more frequent) complete blood count (CBC). […] Weekly ejaculated sperm counts measured the effect of busulfan on spermatogenesis and the progression of spermatogenic recovery after transplant. […]
Animals received daily subcutaneous injections with the cytokine G-CSF for 6 days to mobilize hematopoietic stem cells from the bone marrow into the general circulation. […] Animals were monitored closely for hematopoietic deficits with weekly (or more frequent) complete blood count (CBC). […]

Data set [5] has as its system irradiated mice. Conditions: G-CSF 100 μg/kg/day for 3 days prior to 5 Gy testicular gamma irradiation; measured 3 weeks later; cited from earlier work.
Setting [6] is: 2 day pre-treatment and 5 day post-treatment with G-CSF 50 μg/kg, p<0.05 Tukey-Kramer ANOVA.

As for `CS(=O)(=O)OCCCCOS(C)(=O)=O` [busulfan, reference compound], in data set [1] (busulfan 44 mg/kg, two months after treatment, histology of seminiferous tubule cross-sections), the “spermatogenesis, busulfan alone compared to control animals” value is listed as “significantly less spermatogenesis”. Further, the “testis weights, busulfan-treated animals compared with controls” value in data set [1] (busulfan 44 mg/kg, two months after treatment, student's T-test) is recorded as “significantly smaller; also recorded: significantly reduced”. Besides, the “loss of spermatogenesis (azoospermia), mean sperm counts” value in data set [2] is “loss of spermatogenesis (azoospermia) for at least one year”. Also, in data set [3] (student's T-test), the “numbers of PLZF+ spermatogonia per tubule, busulfan-treated groups compared with vehicle-treated animals” value is reported as “significantly lower”.
Regarding “SCF: cytokine given in some cases in addition to G-CSF for mobilization of hematopoietic stem cells”, the “spermatogenic recovery, animal given SCF in addition to G-CSF compared with the other two G-CSF animals” value in data set [4] (one monkey of the G-CSF group, data not shown) is recorded as “no apparent difference in spermatogenic recovery”.

B1: granulocyte colony-stimulating factor (protein, UniProt P09919 31-207, looked up)
Granulocyte …: TPLGPASSLPQSFLLKCLEQVRKIQGDGAALQEKLVSECATYKLCHPEELVLLGHSLGIPWAPLSSCPSQALQLAGCLSQLHSGLFLYQGLLQALEGISPELGPTLDTLQLDVADFATTIWQQMEELGMAPALQPTQGAMPAFASAFQRRAGGVLVASHLQSFLEVSYRVLRHLAQP
notes: protein produced from the gene encoding colony-stimulating factor 3; known by trade names neupogen, neulasta, filgrastim
Turning to B1, the “numbers of surviving differentiated spermatogonia following sub-sterilizing irradiation” value in data set [5] is on record as “modest improvement”. Besides, in data set [1] (setting [6]), the “empty seminiferous tubules, G-CSF + busulfan compared with busulfan alone” value is reported as “significantly fewer; also recorded: significantly less”; the “seminiferous tubules containing complete spermatogenesis, G-CSF + busulfan compared with busulfan alone” value is “significantly more”; the “tubules with any degree of spermatogenesis, G-CSF + busulfan compared with busulfan alone” value is on record as “significantly more”. Also, the “testis weights, busulfan + G-CSF compared with busulfan alone” value in data set [1] (G-CSF 50 μg/kg/day for seven days, busulfan 44 mg/kg, two months after treatment) is recorded as “not different; also recorded: did not differ significantly”. Besides, the “recovery of spermatogenesis after busulfan treatment, G-CSF compared with controls” value in data set [1] (histological analysis, G-CSF 50 μg/kg/day, busulfan 44 mg/kg, two months) is on record as “significantly better recovery of spermatogenesis”. Also, the “proportion of PLZF+ spermatogonia positive for activated Caspase 3, G-CSF compared to busulfan alone” value in data set [3] (early apoptosis, p=0.38) is reported as “not different”. In data set [3] (p=0.035, student's T-test), the “number of PLZF+ spermatogonia per tubule cross-section, G-CSF + busulfan compared with busulfan alone” value is “significantly higher”. The “proportion of PLZF+ spermatogonia positive for TUNEL, G-CSF compared to busulfan alone” value in data set [3] (late apoptosis, p=0.28) is on record as “not different”. For the same molecule, the “time at which spermatogenesis recovered after busulfan treatment” value in data set [4] (8-11 mg/kg busulfan plus G-CSF mobilization and PBSC transplants, three animals, endogenous spermatogenesis) is listed as no less than 20 weeks.
